The assay has as its target Cdc2MsB, A-type cyclin-dependent kinase of Medicago sativa (two-hybrid bait, GAL4 DNA binding domain fusion) (Medicago sativa, UniProt P04386 1-147; Q05006 1-294). Briefly: yeast two-hybrid (growth on selective medium, beta-galactosidase). The source says: FIG. 5. Interaction in a yeast two-hybrid assay of alfalfa Cdc2-type or Cdc2-related kinases and different D-type cyclins and myosin. The different Cdc2Ms kinase cDNAs are cloned in the pGBT9 bait vector and the cDNAs of the interacting partners in the pGAD424 activation domain vector. (A) Growth of PJ69-4a yeast cells transformed with expression vectors comprising the indicated protein coding sequences on the agar surface of a selective medium lacking tryptophan, leucine, adenine and histidine. The relative growth values were also determined in liquid cultures and are numerically indicated. (B) Quantification of β-galactosidase enzyme acitivity of yeast strains described in (A).
The yeast strain PJ69-4A [MATa trp1-901, leu2-3,112 ura3-52, his3-200 gal4delta, gal80delta GAL2-ADE2, LYS2:: GAL1-HIS3, met2::GAL7-lacZ] (James et al. 1996), which contains three reporter genes (HIS3, ADE2 and lacZ), was used in library screening, growth tests and β-galactosidase assays. Transformation of yeast with pGBT9, pGAD424, pBD-GAL4 and pAD-GAL4 constructs was performed as described by Schiesti and Gietz (1989). The transformation mixture was plated on yeast dropout selection media either lacking leucine and tryptophan (SD-Trp-Leu) for testing the transformation efficiency or on media lacking leucine, tryptophan and histidine, for testing protein-protein interactions. […]

B1: MtCycDm, novel D-type cyclin of Medicago truncatula (two-hybrid prey, GAL4 activation domain fusion) (other, not shown: large carriers)
chain: MIEEEQLPAILMPSDCELLCGEDSSEVLTGDLPECSSDLDSSSSSQLPSSSLFAEEEEDSIAVFIEHEFKFVPGFDYVSRFQSRSLESSTREEAIAWILKVHEYYGFQPLTAYLSVNYMDRFLDSRPLPGIKWMATATFICCMFVFSSKDGGPLVPSLLDFQIEGAKYIFQPRTMLIMELLVLTILDWRLRSITHLVSSVSLRATRFTGTFNHFIISRATEIILSNIRDASFLTYRPSCIAAAAILSAANEIPNWSFVNPEHAESWCEGLSKEKIIGCYELIQEIVSSNNRRNAPKVLPQLRVTARTTRWSTVSSLSSSPSSSSSPSYSLSYKKRKLNSCFWVDVDKGNSEGREKKQTR
notes: Tested only as a yeast two-hybrid fusion; The order GAL4 domain then insert follows the vector design; also called cyclin D of the invention; MTCYCDM gene product
Consider B1, for which the binding result is reported as “no binding”.

The record behind these values is patent publication US20050050591A1 (published 2005).
